# Source: patent publication US12467929
# Columns and labels:
# [1] = biological target: recombinant UBE3A protein (Homo sapiens (Human)) (UniProt Q05086); assay: 3-step Simoa; capture Novus; UBE3A 10 ng/ml
# [2] = biological target: recombinant UBE3A protein (Homo sapiens (Human)) (UniProt Q05086); assay: 3-step Simoa; capture GTX; UBE3A 0.1 ng/ml
# [3] = biological target: recombinant UBE3A protein (Homo sapiens (Human)) (UniProt Q05086); assay: 2-step Simoa; capture Novus; UBE3A 0.1 ng/ml
# [4] = biological target: recombinant UBE3A protein (Homo sapiens (Human)) (UniProt Q05086); assay: 2-step Simoa; capture GTX; UBE3A 1 ng/ml
# [5] = biological target: recombinant UBE3A protein (Homo sapiens (Human)) (UniProt Q05086); assay: 2-step Simoa; capture GTX; UBE3A 10 ng/ml
# [6] = biological target: recombinant UBE3A protein (Homo sapiens (Human)) (UniProt Q05086); assay: 2-step Simoa; capture Novus; UBE3A 10 ng/ml
# [7] = biological target: recombinant UBE3A protein (Homo sapiens (Human)) (UniProt Q05086); assay: 3-step Simoa; capture Novus; UBE3A 0.01 ng/ml
# [8] = biological target: recombinant UBE3A protein (Homo sapiens (Human)) (UniProt Q05086); assay: 2-step Simoa; capture GTX; UBE3A 0.01 ng/ml
# [9] = biological target: recombinant UBE3A protein (Homo sapiens (Human)) (UniProt Q05086); assay: 3-step Simoa; capture MS 2F6; UBE3A 1 ng/ml
# [10] = biological target: recombinant UBE3A protein (Homo sapiens (Human)) (UniProt Q05086); assay: 2-step Simoa; capture MS 2F6; UBE3A 0.1 ng/ml
# [11] = biological target: recombinant UBE3A protein (Homo sapiens (Human)) (UniProt Q05086); assay: 3-step Simoa; capture Novus; UBE3A 1 ng/ml
# [12] = biological target: recombinant UBE3A protein (Homo sapiens (Human)) (UniProt Q05086); assay: 2-step Simoa; capture MS 2F6; UBE3A 1 ng/ml
# [13] = biological target: recombinant UBE3A protein (Homo sapiens (Human)) (UniProt Q05086); assay: 2-step Simoa; capture MS 2F6; UBE3A 10 ng/ml
# [14] = biological target: recombinant UBE3A protein (Homo sapiens (Human)) (UniProt Q05086); assay: 3-step Simoa; capture MS 2F6; UBE3A 10 ng/ml
# [15] = biological target: recombinant UBE3A protein (Homo sapiens (Human)) (UniProt Q05086); assay: 2-step Simoa; capture MS 2F6; UBE3A 0.01 ng/ml
# [16] = biological target: recombinant UBE3A protein (Homo sapiens (Human)) (UniProt Q05086); assay: 3-step Simoa; capture MS 2F6; UBE3A 0.1 ng/ml
# [17] = biological target: recombinant UBE3A protein (Homo sapiens (Human)) (UniProt Q05086); assay: 3-step Simoa; capture GTX; UBE3A 1 ng/ml
# [18] = biological target: recombinant UBE3A protein (Homo sapiens (Human)) (UniProt Q05086); assay: 3-step Simoa; capture GTX; UBE3A 10 ng/ml
# [19] = biological target: recombinant UBE3A protein (Homo sapiens (Human)) (UniProt Q05086); assay: 2-step Simoa; capture Novus; UBE3A 1 ng/ml
# [20] = biological target: recombinant UBE3A protein (Homo sapiens (Human)) (UniProt Q05086); assay: 3-step Simoa; capture Novus; UBE3A 0.1 ng/ml
# [21] = biological target: recombinant UBE3A protein (Homo sapiens (Human)) (UniProt Q05086); assay: 2-step Simoa; capture Novus; UBE3A 0.01 ng/ml
# [22] = biological target: recombinant UBE3A protein (Homo sapiens (Human)) (UniProt Q05086); assay: 3-step Simoa; capture GTX; UBE3A 0.01 ng/ml
# Chain of UniProt Q05086 (Q05086 whole entry): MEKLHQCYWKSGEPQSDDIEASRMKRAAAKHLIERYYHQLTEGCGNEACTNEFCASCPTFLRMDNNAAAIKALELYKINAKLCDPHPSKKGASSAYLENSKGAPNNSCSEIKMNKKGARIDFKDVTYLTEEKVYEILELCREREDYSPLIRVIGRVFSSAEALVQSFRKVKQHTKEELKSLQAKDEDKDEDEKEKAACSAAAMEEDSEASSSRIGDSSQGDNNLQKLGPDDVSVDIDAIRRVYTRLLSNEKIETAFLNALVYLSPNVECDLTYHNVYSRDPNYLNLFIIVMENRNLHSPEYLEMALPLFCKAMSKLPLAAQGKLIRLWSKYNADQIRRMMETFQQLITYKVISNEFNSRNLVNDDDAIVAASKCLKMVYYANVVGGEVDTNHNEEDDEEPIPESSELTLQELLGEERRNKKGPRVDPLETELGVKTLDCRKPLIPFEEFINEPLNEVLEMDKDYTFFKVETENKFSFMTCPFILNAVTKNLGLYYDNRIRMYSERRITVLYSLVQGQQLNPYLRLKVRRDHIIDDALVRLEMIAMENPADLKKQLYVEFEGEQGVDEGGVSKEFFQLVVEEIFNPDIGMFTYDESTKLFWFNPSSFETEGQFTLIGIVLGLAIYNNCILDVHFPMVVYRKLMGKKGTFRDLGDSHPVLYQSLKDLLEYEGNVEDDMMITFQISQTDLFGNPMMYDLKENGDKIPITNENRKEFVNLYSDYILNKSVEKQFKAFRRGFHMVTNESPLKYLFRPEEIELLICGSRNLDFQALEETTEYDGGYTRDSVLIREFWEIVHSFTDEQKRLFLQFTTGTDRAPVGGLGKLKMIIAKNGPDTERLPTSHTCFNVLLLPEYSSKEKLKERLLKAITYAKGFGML
substance,measurement,setting,value
GTX101092 (GeneTex) (antibody),AEB1,[1],0.0258
same,AEB2,[1],0.0245
same,Ave AEB,[1],0.0252
same,Signal to Background,[1],1.12
same,AEB1,[2],0.0192
same,AEB2,[2],0.0198
same,Ave AEB,[2],0.0195
same,Signal to Background,[2],0.91
same,AEB1,[3],0.0516
same,AEB2,[3],0.0515
same,Ave AEB,[3],0.0516
same,Signal to Background,[3],1.03
same,AEB1,[4],0.0504
same,AEB2,[4],0.053
same,Ave AEB,[4],0.0517
same,Signal to Background,[4],1.02
same,AEB1,[5],0.0957
same,AEB2,[5],0.0942
same,Ave AEB,[5],0.095
same,Signal to Background,[5],1.88
same,AEB1,[6],0.0616
same,AEB2,[6],0.0585
same,Ave AEB,[6],0.0601
same,Signal to Background,[6],1.2
same,AEB1,[7],0.0217
same,AEB2,[7],0.0245
same,Ave AEB,[7],0.0231
same,Signal to Background,[7],1.03
same,AEB1,[8],0.0483
same,AEB2,[8],0.0494
same,Ave AEB,[8],0.0489
same,Signal to Background,[8],0.97
same,AEB1,[9],0.0178
same,AEB2,[9],0.0198
same,Ave AEB,[9],0.0188
same,Signal to Background,[9],1.01
same,AEB1,[10],0.0426
same,AEB2,[10],0.0425
same,Ave AEB,[10],0.0426
same,Signal to Background,[10],0.64
same,AEB1,[11],0.0264
same,AEB2,[11],0.0248
same,Ave AEB,[11],0.0256
same,Signal to Background,[11],1.14
same,AEB1,[12],0.0418
same,AEB2,[12],0.0409
same,Ave AEB,[12],0.0413
same,Signal to Background,[12],0.62
same,AEB1,[13],0.0412
same,AEB2,[13],0.0418
same,Ave AEB,[13],0.0415
same,Signal to Background,[13],0.62
same,AEB1,[14],0.0251
same,AEB2,[14],0.0292
same,Ave AEB,[14],0.0271
same,Signal to Background,[14],1.45
same,AEB1,[15],0.0481
same,AEB2,[15],0.0445
same,Ave AEB,[15],0.0463
same,Signal to Background,[15],0.69
same,AEB1,[16],0.017
same,AEB2,[16],0.0184
same,Ave AEB,[16],0.0177
same,Signal to Background,[16],0.95
same,AEB1,[17],0.0243
same,AEB2,[17],0.0204
same,Ave AEB,[17],0.0224
same,Signal to Background,[17],1.05
same,AEB1,[18],0.0337
same,AEB2,[18],0.034
same,Ave AEB,[18],0.0339
same,Signal to Background,[18],1.59
same,AEB1,[19],0.0503
same,AEB2,[19],0.0488
same,Ave AEB,[19],0.0496
same,Signal to Background,[19],0.99
same,AEB1,[20],0.0223
same,AEB2,[20],0.0228
same,Ave AEB,[20],0.0225
same,Signal to Background,[20],1
same,AEB1,[21],0.0531
same,AEB2,[21],0.0522
same,Ave AEB,[21],0.0527
same,Signal to Background,[21],1.05
same,AEB1,[22],0.019
same,AEB2,[22],0.021
same,Ave AEB,[22],0.02
same,Signal to Background,[22],0.94
